Data set [1] addresses T1, human serum carnosinase (CN1) (Homo sapiens, UniProt Q96KN2).
T1 construct: made in house; host or cells: HeLa cells, stably transfected; enzyme purified from the culture medium
T1 sequence (Q96KN2 26-507): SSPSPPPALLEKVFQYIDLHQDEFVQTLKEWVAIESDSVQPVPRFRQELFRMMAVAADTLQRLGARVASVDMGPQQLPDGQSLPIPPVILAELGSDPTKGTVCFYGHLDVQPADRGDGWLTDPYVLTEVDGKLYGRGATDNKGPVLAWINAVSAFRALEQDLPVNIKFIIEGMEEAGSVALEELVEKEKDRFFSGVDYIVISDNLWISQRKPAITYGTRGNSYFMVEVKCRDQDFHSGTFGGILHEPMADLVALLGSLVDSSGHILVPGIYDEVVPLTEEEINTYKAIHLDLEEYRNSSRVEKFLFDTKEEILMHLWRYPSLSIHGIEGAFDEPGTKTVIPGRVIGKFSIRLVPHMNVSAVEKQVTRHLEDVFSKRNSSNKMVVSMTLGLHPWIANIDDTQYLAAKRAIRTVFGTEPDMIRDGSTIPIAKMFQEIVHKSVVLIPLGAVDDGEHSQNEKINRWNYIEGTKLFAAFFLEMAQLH
Kind of data set: Enzymatic hydrolysis by human serum carnosinase. As to conditions: 900 μM, 37°C, 50 mM Tris/HCl pH 8.0, 5 hours; versus non-conjugated carnosine. The data set is classed as in vitro ADME. Here is the method: The time-dependent stability of HyCar with respect to human serum carnosinase, compared with the stability of the mixture of carnosine+HA or carnosine alone, was determined by incubating each of these substances (900 μM) at 37° C. in 50 mM Tris/HCl (pH 8.0) with the above-mentioned enzyme (CN1), purified by the culture medium of Hela cells stably transfected as previously indicated (Antioxid. Redox Signal., 11, 2759, 2009). A parallel experiment was effected as negative control, in which hyaluronic acid alone was subjected to enzymatic action. The course of the reaction was followed by collecting, at various time intervals, 50 μl aliquots of the mixture for a total of 5 hours, and, after deproteinization with trichloroacetic acid (TCA), fluorometrically determining the quantity of histidine in the final solution, after reaction with ortho-phthalic aldehyde (OPA; Fluka), according to a procedure already described (Clin. Chim. Acta, 1982, 123, 221).
More specifically, FIG. 5 indicates the stability with time of HyCar (●), subjected to the action of human serum carnosinase, compared with the stability of carnosine (▪), carnosine+HA (▴), and HA alone (♦)(the latter used as negative control of the experiment). The histidine released was spectrophotometrically determined as OPA-derivative.

Data set [2] is described as follows: Intrinsic viscosity by size exclusion chromatography with triple detector. The data set is classed as physicochemical. As to conditions: for Intrinsic viscosity: 40°C, 0.1M sodium nitrate. Here is the method:
Experiments aimed at determining the molecular weight distribution (MWD) and the intrinsic viscosity of the conjugated HyCar were effected on a CPG/SEC chromatographic system equipped with a Malvern triple detector (ViscoteckTDmax).
The parameters indicated above were determined by means of size exclusion chromatography carried out on the chromatographic system GPCmax VE 2001 (Malvern), equipped with two TSK-GEL GMPWXL columns (7.8 mm ID×30 cm; Viscotek-TOSOH BIOSCIENCE) installed in series. The system is coupled with a system of three detectors positioned in series and comprising: a refraction index detector, a light scattering detector and a four-capillary differential viscometer. The sample was eluted using an aqueous solution 0.1M of sodium nitrate containing 0.5 g/L of sodium azide with a flow of 0.6 ml/min, at 40° C. The software Omnisec 4.1 was used for the acquisition and data analysis.
The physical parameters relating to the intrinsic viscosity and molecular weight (MW), determined at different concentrations for the conjugate of hyaluronic acid-carnosine, compared with those of the corresponding hyaluronic acid, determined by means of size exclusion chromatography coupled with a triple detector, are indicated in Table 1 below.

For “conjugated 3-N-hyaluronyl of 2-(3-aminopropanamide)-3-(1H-imidazol-4-yl)propanoic acid [HyCar (7%)190 kD]”, the “resistance to the action of human serum carnosinase” value in data set [1] is on record as “greater resistance”. The “intrinsic viscosity compared with non-conjugated hyaluronic acid of the same MW (in words)” value in data set [2] was “only slightly lower”. In addition, the Intrinsic viscosity in data set [2] (theoretical conc. 0.1 mg/ml) amounted to 4.9 dL/g; in data set [2] (theoretical conc. 0.25 mg/ml) it was 4.8 dL/g; in data set [2] (theoretical conc. 0.5 mg/ml), 4.8 dL/g.

The values above are taken from US10364299B2, “Derivatives obtained from hyaluronic acid and carnosine” (CONSIGLIO NAZIONALE DELLE RICERCHE, priority 2014, dated 2019).
